Assay results: article PMC3852489

Target: S377-588-Fc (residues 377-588 of MERS-CoV spike protein fused with human IgG Fc) (MERS-CoV) (UniProt K9N5Q8)
Experiment: SDS-PAGE of non-boiled against boiled sample

For “S377-588-Fc (residues 377-588 of MERS-CoV spike protein fused with human IgG Fc) (from UniProt K9N5Q8 377-588) (Fc fusion)”, the stoichiometry N was 2.
